Assay results published in PMC6497270, “Thermodynamic investigation of DNA-binding affinity of wild-type and mutant transcription factor RUNX1”.

Experiments:
RUNX1 K83R = RUNX1 K83R (Homo sapiens, UniProt Q01196 1-181, K83R); experiment: ITC; without CBFβ; ITC: 20 uM RUNX1 in cell, 100 uM DNA in syringe, 10 mM HEPES-NaOH pH 7.5, 180 mM NaCl, 0.005% Tween 20; temperature stated as 277 K (Methods) but 25 °C (Results); conditions: protein: recombinant; tags: N-terminal His6; (21 bp)
RUNX1 K83R/H179K = RUNX1 K83R/H179K (Homo sapiens, UniProt Q01196 1-181, K83R;H179K); experiment: as above; conditions: protein: recombinant; tags: N-terminal His6; (21 bp)
Chain of RUNX1 K83R/H179K (Q01196 1-181 K83R/H179K): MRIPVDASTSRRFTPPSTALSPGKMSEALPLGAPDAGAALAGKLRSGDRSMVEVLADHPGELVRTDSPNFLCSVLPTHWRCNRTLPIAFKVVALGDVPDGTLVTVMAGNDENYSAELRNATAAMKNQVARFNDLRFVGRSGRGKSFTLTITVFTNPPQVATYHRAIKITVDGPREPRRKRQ

[1] = molecular target: RUNX1 WT (RUNT-containing) (Homo sapiens, UniProt Q01196 1-181); experiment: as above; conditions: protein: recombinant; tags: N-terminal His6; (21 bp)
Chain of RUNX1 WT (RUNT-containing) (Q01196 1-181): as the sequence (Q01196 1-181 K83R/H179K) above, with R83K, K179H counted along it

RUNX1 H179K = RUNX1 H179K (Homo sapiens, UniProt Q01196 1-181, H179K); experiment: as above; conditions: protein: recombinant; tags: N-terminal His6; (21 bp)
Chain of RUNX1 H179K (Q01196 1-181 H179K): as the sequence (Q01196 1-181 K83R/H179K) above, with R83K counted along it

RUNX1 R139Q = RUNX1 R139Q (Homo sapiens, UniProt Q01196 1-181, R139Q); experiment: as above; conditions: protein: recombinant; tags: N-terminal His6; (21 bp)
Chain of RUNX1 R139Q (Q01196 1-181 R139Q): as the sequence (Q01196 1-181 K83R/H179K) above, with R83K, R139Q, K179H counted along it

RUNX1 S114L = RUNX1 S114L (Homo sapiens, UniProt Q01196 1-181, S114L); experiment: as above; conditions: protein: recombinant; tags: N-terminal His6; (21 bp)
Chain of RUNX1 S114L (Q01196 1-181 S114L): as the sequence (Q01196 1-181 K83R/H179K) above, with R83K, S114L, K179H counted along it

RUNX1 R139Q;CBFβ = RUNX1 R139Q;CBFβ (Homo sapiens;Homo sapiens?, UniProt Q01196;Q13951 1-181;1-141, R139Q|); experiment: ITC; RUNX1:CBFβ 1:2; ITC: 20 uM RUNX1 in cell, 100 uM DNA in syringe, 10 mM HEPES-NaOH pH 7.5, 180 mM NaCl, 0.005% Tween 20; temperature stated as 277 K (Methods) but 25 °C (Results); conditions: protein: recombinant;recombinant; tags: N-terminal His6;; copies: 1;1; (21 bp)
Chain of RUNX1 R139Q;CBFβ (Q01196 1-181 R139Q, chain 1 of 2): as the sequence (Q01196 1-181 K83R/H179K) above, with R83K, R139Q, K179H counted along it
Chain of RUNX1 R139Q;CBFβ (Q13951 1-141, chain 2 of 2): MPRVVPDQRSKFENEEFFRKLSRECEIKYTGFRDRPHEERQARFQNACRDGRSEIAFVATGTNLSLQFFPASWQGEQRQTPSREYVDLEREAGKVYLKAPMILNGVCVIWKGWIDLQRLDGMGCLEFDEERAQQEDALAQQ

[2] = molecular target: RUNX1 WT (RUNT-containing);CBFβ (Homo sapiens;Homo sapiens?, UniProt Q01196;Q13951 1-181;1-141, |); experiment: as above; conditions: protein: recombinant;recombinant; tags: N-terminal His6;; copies: 1;1; (21 bp)
Chain of RUNX1 WT (RUNT-containing);CBFβ (Q01196 1-181, chain 1 of 2): as the sequence (Q01196 1-181 K83R/H179K) above, with R83K, K179H counted along it
Chain of RUNX1 WT (RUNT-containing);CBFβ (Q13951 1-141, chain 2 of 2): as the sequence (Q13951 1-141, chain 2 of 2) above

RUNX1 K83R;CBFβ = RUNX1 K83R;CBFβ (Homo sapiens;Homo sapiens?, UniProt Q01196;Q13951 1-181;1-141, K83R|); experiment: as above; conditions: protein: recombinant;recombinant; tags: N-terminal His6;; copies: 1;1; (21 bp)
Chain of RUNX1 K83R;CBFβ (Q01196 1-181 K83R, chain 1 of 2): as the sequence (Q01196 1-181 K83R/H179K) above, with K179H counted along it
Chain of RUNX1 K83R;CBFβ (Q13951 1-141, chain 2 of 2): as the sequence (Q13951 1-141, chain 2 of 2) above

RUNX1 H179K;CBFβ = RUNX1 H179K;CBFβ (Homo sapiens;Homo sapiens?, UniProt Q01196;Q13951 1-181;1-141, H179K|); experiment: as above; conditions: protein: recombinant;recombinant; tags: N-terminal His6;; copies: 1;1; (21 bp)
Chain of RUNX1 H179K;CBFβ (Q01196 1-181 H179K, chain 1 of 2): as the sequence (Q01196 1-181 K83R/H179K) above, with R83K counted along it
Chain of RUNX1 H179K;CBFβ (Q13951 1-141, chain 2 of 2): as the sequence (Q13951 1-141, chain 2 of 2) above

RUNX1 S114L;CBFβ = RUNX1 S114L;CBFβ (Homo sapiens;Homo sapiens?, UniProt Q01196;Q13951 1-181;1-141, S114L|); experiment: as above; conditions: protein: recombinant;recombinant; tags: N-terminal His6;; copies: 1;1; (21 bp)
Chain of RUNX1 S114L;CBFβ (Q01196 1-181 S114L, chain 1 of 2): as the sequence (Q01196 1-181 K83R/H179K) above, with R83K, S114L, K179H counted along it
Chain of RUNX1 S114L;CBFβ (Q13951 1-141, chain 2 of 2): as the sequence (Q13951 1-141, chain 2 of 2) above

RUNX1 K83R/H179K;CBFβ = RUNX1 K83R/H179K;CBFβ (Homo sapiens;Homo sapiens?, UniProt Q01196;Q13951 1-181;1-141, K83R;H179K|); experiment: as above; conditions: protein: recombinant;recombinant; tags: N-terminal His6;; copies: 1;1; (21 bp)
Chain of RUNX1 K83R/H179K;CBFβ (Q01196 1-181 K83R/H179K, chain 1 of 2): as the sequence (Q01196 1-181 K83R/H179K) above
Chain of RUNX1 K83R/H179K;CBFβ (Q13951 1-141, chain 2 of 2): as the sequence (Q13951 1-141, chain 2 of 2) above

RUNX1 K83E = RUNX1 K83E (Homo sapiens, UniProt Q01196 1-181, K83E); experiment: ITC; without CBFβ; no significant enthalpy change; ITC: 20 uM RUNX1 in cell, 100 uM DNA in syringe, 10 mM HEPES-NaOH pH 7.5, 180 mM NaCl, 0.005% Tween 20; temperature stated as 277 K (Methods) but 25 °C (Results); conditions: protein: recombinant; tags: N-terminal His6; (21 bp)
Chain of RUNX1 K83E (Q01196 1-181 K83E): as the sequence (Q01196 1-181 K83R/H179K) above, with R83E, K179H counted along it

RUNX1 K83E;CBFβ = RUNX1 K83E;CBFβ (Homo sapiens;Homo sapiens?, UniProt Q01196;Q13951 1-181;1-141, K83E|); experiment: ITC; RUNX1:CBFβ 1:2; no significant enthalpy change; ITC: 20 uM RUNX1 in cell, 100 uM DNA in syringe, 10 mM HEPES-NaOH pH 7.5, 180 mM NaCl, 0.005% Tween 20; temperature stated as 277 K (Methods) but 25 °C (Results); conditions: protein: recombinant;recombinant; tags: N-terminal His6;; copies: 1;1; (21 bp)
Chain of RUNX1 K83E;CBFβ (Q01196 1-181 K83E, chain 1 of 2): as the sequence (Q01196 1-181 K83R/H179K) above, with R83E, K179H counted along it
Chain of RUNX1 K83E;CBFβ (Q13951 1-141, chain 2 of 2): as the sequence (Q13951 1-141, chain 2 of 2) above

Chain of RUNX1 K83R (Q01196 1-181 K83R): as the sequence (Q01196 1-181 K83R/H179K) above, with K179H counted along it

B1: CSF-1R promoter 21 bp DNA (dsDNA)
DNA 1: CAAACTCTGTGGTTGCCTTGC
DNA 2: GCAAGGCAACCACAGAGTTTG
Question: Which Kd (RUNX1 K83R) does the source give for B1 here?
Answer: 480 ± 150 nM

Question: And the Kd (RUNX1 K83R/H179K)?
Answer: 290 ± 50 nM

Question: And the Kd [1]?
Answer: 490 ± 10 nM

Question: And the Kd (RUNX1 H179K)?
Answer: 350 ± 120 nM

Question: And the Kd (RUNX1 R139Q)?
Answer: 1480 ± 510 nM

Question: What about the Kd (RUNX1 S114L) of the same binder?
Answer: 700 ± 80 nM

Question: And the Kd (RUNX1 R139Q;CBFβ)?
Answer: 3350 ± 800 nM

Question: What about the Kd [2] of the same binder?
Answer: 230 ± 50 nM

Question: And the Kd (RUNX1 K83R;CBFβ)?
Answer: 160 ± 30 nM

Question: And the Kd (RUNX1 H179K;CBFβ)?
Answer: 100 ± 40 nM

Question: What about the Kd (RUNX1 S114L;CBFβ) of the same binder?
Answer: 390 ± 80 nM

Question: What about the Kd (RUNX1 K83R/H179K;CBFβ) of the same binder?
Answer: 73 ± 5 nM

Question: Does B1 bind (RUNX1 K83E)?
Answer: no binding

Question: Does B1 bind (RUNX1 K83E;CBFβ)?
Answer: no binding
